From patent US20220064276A1 (SCHOLAR ROCK, published 2022)

What was measured:
[1] = biological target: LTBP-proTGFβ1: transfected human proTGFβ1 presented by endogenous LTBP1/3 of LN229 cells (human); assay: cell-based or functional assay
[2] = biological target: T1, mouse LTBP1-proTGFβ1 complex (mouse, UniProt Q8CG19 339-1712; P04202 30-390); assay: cell-based or functional assay
[3] = biological target: T2, human LTBP1-proTGFβ1 complex (human, UniProt Q14766 347-1721; P01137 30-390); assay: Octet BLI, IgG captured
T2 construct: Large latent complex: one presenting molecule disulfide-linked to a proTGFβ1 dimer; also called Hu LTBP1-proTGFβ1; huLTBP1 proTGFβ1
T2 sequence (Q14766 347-1721 limits assumed, chain 1 of 2): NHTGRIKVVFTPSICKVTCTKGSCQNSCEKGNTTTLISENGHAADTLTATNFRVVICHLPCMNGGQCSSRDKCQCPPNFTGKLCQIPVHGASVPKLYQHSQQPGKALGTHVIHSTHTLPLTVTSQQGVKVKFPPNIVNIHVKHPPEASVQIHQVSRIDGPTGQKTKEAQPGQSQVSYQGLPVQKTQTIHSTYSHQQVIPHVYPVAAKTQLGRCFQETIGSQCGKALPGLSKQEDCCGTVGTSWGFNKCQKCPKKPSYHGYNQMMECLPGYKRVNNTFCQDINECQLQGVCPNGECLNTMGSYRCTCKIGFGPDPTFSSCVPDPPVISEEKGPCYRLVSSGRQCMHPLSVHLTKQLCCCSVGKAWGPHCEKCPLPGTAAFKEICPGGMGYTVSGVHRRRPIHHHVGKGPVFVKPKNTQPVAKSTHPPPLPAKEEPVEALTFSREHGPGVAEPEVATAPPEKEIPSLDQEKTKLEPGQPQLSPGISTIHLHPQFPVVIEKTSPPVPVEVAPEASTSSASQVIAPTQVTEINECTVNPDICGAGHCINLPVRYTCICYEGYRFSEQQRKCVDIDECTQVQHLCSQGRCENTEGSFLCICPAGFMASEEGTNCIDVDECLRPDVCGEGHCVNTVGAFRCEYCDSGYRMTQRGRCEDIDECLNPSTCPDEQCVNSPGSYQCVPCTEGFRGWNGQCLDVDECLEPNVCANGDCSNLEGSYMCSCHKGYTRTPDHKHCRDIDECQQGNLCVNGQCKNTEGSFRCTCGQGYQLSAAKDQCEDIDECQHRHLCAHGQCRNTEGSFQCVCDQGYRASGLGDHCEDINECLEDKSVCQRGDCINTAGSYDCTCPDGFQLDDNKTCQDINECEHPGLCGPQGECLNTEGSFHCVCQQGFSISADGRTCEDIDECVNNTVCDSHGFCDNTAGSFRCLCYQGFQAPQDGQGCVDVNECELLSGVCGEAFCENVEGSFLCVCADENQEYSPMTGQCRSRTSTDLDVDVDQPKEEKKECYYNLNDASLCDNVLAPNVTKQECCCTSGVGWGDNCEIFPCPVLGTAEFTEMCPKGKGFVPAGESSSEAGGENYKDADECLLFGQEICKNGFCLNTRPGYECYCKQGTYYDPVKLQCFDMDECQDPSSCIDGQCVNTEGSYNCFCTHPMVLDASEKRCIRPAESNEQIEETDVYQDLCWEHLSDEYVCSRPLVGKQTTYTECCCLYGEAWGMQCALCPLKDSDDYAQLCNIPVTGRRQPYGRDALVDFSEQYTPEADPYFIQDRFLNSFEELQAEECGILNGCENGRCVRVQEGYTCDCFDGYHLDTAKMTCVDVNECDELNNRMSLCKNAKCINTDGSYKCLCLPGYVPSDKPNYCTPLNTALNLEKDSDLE
T2 sequence (P01137 30-390 limits assumed, chain 2 of 2): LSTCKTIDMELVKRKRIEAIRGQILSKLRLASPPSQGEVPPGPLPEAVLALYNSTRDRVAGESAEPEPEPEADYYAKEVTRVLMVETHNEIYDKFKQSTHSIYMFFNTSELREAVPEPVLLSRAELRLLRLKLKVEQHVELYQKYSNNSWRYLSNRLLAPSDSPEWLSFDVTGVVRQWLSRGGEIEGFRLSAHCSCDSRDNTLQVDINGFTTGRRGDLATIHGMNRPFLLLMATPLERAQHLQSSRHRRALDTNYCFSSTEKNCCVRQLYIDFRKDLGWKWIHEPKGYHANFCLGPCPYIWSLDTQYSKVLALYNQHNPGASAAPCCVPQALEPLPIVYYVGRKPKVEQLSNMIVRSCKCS
Protocol: (§1) Binding affinities of the optimized antibodies were measured by Octet against human LTBP1-proTGFβ1, human LTBP3-proTGFβ1, mouse LTBP1-proTGFβ1, mouse LTBP3-proTGFβ1, and GARP-proTGFβ1 complexes, essentially as described in Example 6. […] The antigens were allowed to associate for 3 minutes followed by a 5-minute dissociation. Kinetics buffer (ForteBio®) was used throughout the experiment, and KD was determined using a 1:1 fitting model for each antibody antigen pair.

[4] = biological target: T3, human LTBP3-proTGFβ1 complex (human, UniProt Q9NS15 44-1303; P01137 30-390, limits assumed); assay: Octet BLI, IgG captured
T3 construct: Exemplary entries; also called Hu LTBP3-proTGFβ1; huLTBP3 proTGFb1
T3 sequence (Q9NS15 44-1303 limits assumed, chain 1 of 2): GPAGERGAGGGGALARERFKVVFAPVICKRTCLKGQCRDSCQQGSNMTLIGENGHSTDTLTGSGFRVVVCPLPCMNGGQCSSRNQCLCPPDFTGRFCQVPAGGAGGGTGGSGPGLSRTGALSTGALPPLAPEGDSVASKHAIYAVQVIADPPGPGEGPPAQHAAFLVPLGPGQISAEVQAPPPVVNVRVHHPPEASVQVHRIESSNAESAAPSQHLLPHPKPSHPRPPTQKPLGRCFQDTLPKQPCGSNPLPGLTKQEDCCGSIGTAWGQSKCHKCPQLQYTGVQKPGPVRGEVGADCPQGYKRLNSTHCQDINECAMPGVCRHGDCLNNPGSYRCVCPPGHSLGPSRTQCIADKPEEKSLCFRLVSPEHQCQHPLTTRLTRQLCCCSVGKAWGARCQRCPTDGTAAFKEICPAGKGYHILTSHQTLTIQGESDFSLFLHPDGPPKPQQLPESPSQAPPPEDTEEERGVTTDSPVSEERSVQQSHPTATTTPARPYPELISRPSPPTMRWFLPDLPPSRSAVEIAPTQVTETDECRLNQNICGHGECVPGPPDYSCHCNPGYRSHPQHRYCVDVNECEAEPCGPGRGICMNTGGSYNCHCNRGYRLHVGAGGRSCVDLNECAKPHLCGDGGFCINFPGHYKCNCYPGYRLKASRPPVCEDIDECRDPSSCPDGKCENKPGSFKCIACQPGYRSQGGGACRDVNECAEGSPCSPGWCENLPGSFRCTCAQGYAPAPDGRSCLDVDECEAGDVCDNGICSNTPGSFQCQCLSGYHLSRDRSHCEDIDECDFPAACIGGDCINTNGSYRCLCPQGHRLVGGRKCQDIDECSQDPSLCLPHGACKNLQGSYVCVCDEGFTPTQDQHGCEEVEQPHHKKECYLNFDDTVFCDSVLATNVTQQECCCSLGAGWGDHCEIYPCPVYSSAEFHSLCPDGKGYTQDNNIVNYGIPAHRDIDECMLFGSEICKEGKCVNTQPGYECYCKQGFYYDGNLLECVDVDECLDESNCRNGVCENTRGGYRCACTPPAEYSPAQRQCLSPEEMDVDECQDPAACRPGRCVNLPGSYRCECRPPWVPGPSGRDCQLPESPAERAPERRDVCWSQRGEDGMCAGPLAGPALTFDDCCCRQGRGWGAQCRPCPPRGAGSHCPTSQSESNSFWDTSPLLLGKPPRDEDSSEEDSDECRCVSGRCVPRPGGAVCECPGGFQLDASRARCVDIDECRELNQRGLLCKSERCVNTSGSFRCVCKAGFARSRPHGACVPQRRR
T3 sequence (P01137 30-390 limits assumed, chain 2 of 2): as the sequence (P01137 30-390 limits assumed, chain 2 of 2) above
Protocol: as §1

[5] = biological target: T4, mouse LTBP3-proTGFβ1 complex (mouse, UniProt Q61810 41-1245; P04202 30-390, limits assumed); assay: Octet BLI, IgG captured
T4 construct: Exemplary entries; also called Mo LTBP3-proTGFβ1; Murine LTBP3 proTGFb1
Protocol: as §1

[6] = biological target: T1, mouse LTBP1-proTGFβ1 complex; assay: Octet BLI, IgG captured
Protocol: as §1

[7] = biological target: T2, human LTBP1-proTGFβ1 complex; assay: SPR Biacore 8K, Fab over captured antigen
Protocol: A Biacore 8K system was employed to determine the monovalent binding affinity and the kinetic parameters for antigen binding of test antibodies. Association and dissociation kinetics of Fab fragments SR-AB42-HuFab, SR-AB63-HuFab and SR-AB43-HuFab to antigen complexes were measured, and resulting ka, kd and KD are provided below. Briefly, the binding kinetics were evaluated by surface plasmon resonance using Biacore 8K (GE Healthcare). Biotinylated capture antigens were immobilized to the chip (10 nM, ˜200 RU loading). A Biotin CAPture sensor chip was used to capture the biotinylated antigens. […] 0 nM was used as a reference. […] 0 nM was used as a reference. Multi-cycle kinetics was employed where each analyte concentration was injected in a separate cycle and the sensor chip surface was regenerated after each cycle. A11 the assays were carried out in freshly prepared 1× HBS-EP+ buffer (10 mM HEPES, 150 mM NaCl, 3 mM EDTA, 0.05% Tween20, pH 7.4). Data were fit globally to a 1:1 binding model to obtain the kinetic parameters. The sensorgram for 0 nM analyte concentration was used as reference.

T1 sequence (Q8CG19 339-1712 limits assumed, chain 1 of 2): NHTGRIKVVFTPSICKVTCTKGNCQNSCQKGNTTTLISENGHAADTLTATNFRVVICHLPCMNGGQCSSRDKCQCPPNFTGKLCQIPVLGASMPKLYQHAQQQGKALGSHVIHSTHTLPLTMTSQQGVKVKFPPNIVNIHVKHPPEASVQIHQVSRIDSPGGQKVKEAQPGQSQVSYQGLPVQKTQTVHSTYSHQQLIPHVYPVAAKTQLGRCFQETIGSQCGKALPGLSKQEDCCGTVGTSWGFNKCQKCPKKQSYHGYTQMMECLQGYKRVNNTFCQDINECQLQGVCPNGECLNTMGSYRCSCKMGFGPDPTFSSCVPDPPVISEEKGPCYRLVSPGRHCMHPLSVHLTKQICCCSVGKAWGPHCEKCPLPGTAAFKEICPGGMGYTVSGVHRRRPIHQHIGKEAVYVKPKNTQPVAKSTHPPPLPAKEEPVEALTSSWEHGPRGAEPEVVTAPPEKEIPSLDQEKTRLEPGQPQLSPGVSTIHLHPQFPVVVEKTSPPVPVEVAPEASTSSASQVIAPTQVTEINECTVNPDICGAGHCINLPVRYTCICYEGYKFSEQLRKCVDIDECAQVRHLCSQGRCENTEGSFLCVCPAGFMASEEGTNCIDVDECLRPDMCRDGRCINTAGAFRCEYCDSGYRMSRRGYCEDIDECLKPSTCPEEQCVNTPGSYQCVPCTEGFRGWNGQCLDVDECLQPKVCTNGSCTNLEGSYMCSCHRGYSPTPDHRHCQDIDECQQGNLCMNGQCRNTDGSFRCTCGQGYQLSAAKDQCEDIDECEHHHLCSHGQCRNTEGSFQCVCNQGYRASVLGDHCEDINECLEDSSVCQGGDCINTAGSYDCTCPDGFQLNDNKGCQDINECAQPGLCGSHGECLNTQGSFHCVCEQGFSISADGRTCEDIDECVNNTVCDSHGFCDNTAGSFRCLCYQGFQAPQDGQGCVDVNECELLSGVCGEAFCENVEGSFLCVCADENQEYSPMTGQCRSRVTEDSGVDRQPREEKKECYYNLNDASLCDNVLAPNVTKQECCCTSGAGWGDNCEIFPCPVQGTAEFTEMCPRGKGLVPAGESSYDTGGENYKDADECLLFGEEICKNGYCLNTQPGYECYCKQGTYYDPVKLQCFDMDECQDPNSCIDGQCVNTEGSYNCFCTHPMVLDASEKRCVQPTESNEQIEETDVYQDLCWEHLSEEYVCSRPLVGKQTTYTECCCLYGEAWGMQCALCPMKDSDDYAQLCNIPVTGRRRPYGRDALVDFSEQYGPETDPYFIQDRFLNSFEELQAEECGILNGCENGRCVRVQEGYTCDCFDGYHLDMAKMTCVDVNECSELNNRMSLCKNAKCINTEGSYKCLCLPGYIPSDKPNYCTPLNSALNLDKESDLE
T1 sequence (P04202 30-390 limits assumed, chain 2 of 2): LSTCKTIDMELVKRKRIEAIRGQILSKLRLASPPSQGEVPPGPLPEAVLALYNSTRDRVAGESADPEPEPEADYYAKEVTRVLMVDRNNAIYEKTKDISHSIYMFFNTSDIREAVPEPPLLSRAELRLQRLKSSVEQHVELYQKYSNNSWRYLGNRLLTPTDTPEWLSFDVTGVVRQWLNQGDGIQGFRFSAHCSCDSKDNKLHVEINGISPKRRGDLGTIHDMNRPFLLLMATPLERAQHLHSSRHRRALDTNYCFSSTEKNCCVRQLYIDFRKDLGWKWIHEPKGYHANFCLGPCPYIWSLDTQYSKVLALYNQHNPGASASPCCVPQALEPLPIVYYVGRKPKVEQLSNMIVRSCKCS
LTBP-proTGFβ1: transfected human proTGFβ1 presented by endogenous LTBP1/3 of LN229 cells (human), sequence (P01137 30-390): as the sequence (P01137 30-390 limits assumed, chain 2 of 2) above

Row | Kd [7] [nM] | koff [7] [s⁻¹] | kon [7] [M⁻¹ s⁻¹] | Binder | further results
1 | 0.055 | 0.000182 | 3.31e+06 | SR-AB50-HuFab (Fab, V domains shown, Human Fab; also called SR-AB50 Fab) VH: QVQLVESGGGVVQPGRSLRLSCAASGFTFRSYVMHWVRQAPGKGLEWVAVISHEGSGKYYADSVKGRFTISRDNSKNTLYLQMNSLRAEDTAVYYCARPRIAARRGGFGTWGQGTLVTVSS VL: NFMLTQPHSVSESPGKTVTISCTRSSGNIDYNYVQWYQQRPGSSPTTVIYEDNVRPSGVPDRFSGSIDSSSNSASLTISGLKTEDEADYYCQSYDSDNQRVVFGGGTKLTVL | 
2 | 0.132 | 0.000155 | 1.17e+06 | SR-AB61-HuFab (Fab, V domains shown, Human Fab; also called SR-AB61 Fab) VH: QVQLVESGGGVVQPGRSLRLSCAASGFTFRSYVMHWVRQAPGKGLEWVAVISHEGSGKYYADSVKGRFTISRDNSKNTLYLQMNSLRAEDTAVYYCALPRIAARRGGFGTWGQGTLVTVSS VL: NFMLTQPHSVSESPGKTVTISCTRSSGNIDYNYVQWYQQRPGSSPTTVIYEDNVRPSGVPDRFSGSIDSSSNSASLTISGLKTEDEADYYCQGYDWDTQGVVFGGGTKLTVL | 
3 | 0.0593 | 0.000104 | 1.76e+06 | SR-AB48-HuFab (Fab, V domains shown, Human Fab; also called SR-AB48 Fab) VH: QVQLVESGGGVVQPGRSLRLSCAASGFTFRSYVMHWVRQAPGKGLEWVAVISHEGSGKYYADSVKGRFTISRDNSKNTLYLQMNSLRAEDTAVYYCARPRIAARRGGFGSWGQGTLVTVSS VL: NFMLTQPHSVSESPGKTVTISCTRSSGNIDYNYVQWYQQRPGSSPTTVIYEDNVRPSGVPDRFSGSIDSSSNSASLTISGLKTEDEADYYCQSYDYDTQGVVFGGGTKLTVL | 
4 | 0.0444 | 0.00011 | 2.47e+06 | SR-AB46-HuFab (Fab, V domains shown, Human Fab; also called SR-AB46 Fab) VH: QVQLVESGGGVVQPGRSLRLSCAASGFTFRSYVMHWVRQAPGKGLEWVAVISHEGSGKYYADSVKGRFTISRDNSKNTLYLQMNSLRAEDTAVYYCARPRIAARRGGFGSWGQGTLVTVSS VL: NFMLTQPHSVSESPGKTVTISCTRSSGNIDYNYVQWYQQRPGSSPTTVIYEDNVRPSGVPDRFSGSIDSSSNSASLTISGLKTEDEADYYCQSYDSDNQRVVFGGGTKLTVL | 
5 | 0.0707 | 0.000128 | 1.82e+06 | SR-AB53-HuFab (Fab, V domains shown, Human Fab; also called SR-AB53 Fab) VH: QVQLVESGGGVVQPGRSLRLSCAASGFTFRSYVMHWVRQAPGKGLEWVAVISHEGSGKYYADSVKGRFTISRDNSKNTLYLQMNSLRAEDTAVYYCARPRIAARRGGFGTWGQGTLVTVSS VL: NFMLTQPHSVSESPGKTVTISCTRSSGNIDYNYVQWYQQRPGSSPTTVIYEDNVRPSGVPDRFSGSIDSSSNSASLTISGLKTEDEADYYCQGYDWDTQGVVFGGGTKLTVL | 

The next lines start with the binder.

Row | Binder | Kd [7] [nM] | koff [7] [s⁻¹] | kon [7] [M⁻¹ s⁻¹] | further results
6 | SR-AB42 (antibody, IgG1, V domains shown, Cycle 3, lineage SR-AB23) VH: QVQLVESGGGVVQPGRSLRLSCAASGFTFRSYVMHWVRQAPGKGLEWVAVISHEGSLKYYADSVKGRFTISRDNSKNTLYLQMNSLRAEDTAVYYCARPRIAARRGGFGYWGQGTLVTVSS VL: NFMLTQPHSVSESPGKTVTISCTRSSGNIDNNYVQWYQQRPGSSPTTVIYEDNQRPSGVPDRFSGSIDSSSNSASLTISGLKTEDEADYYCQSYDYDTQGVVFGGGTKLTVL |  |  |  | IC50, endogenous hLTBP assay (CAGA12 luciferase) [1]: 1.43 nM; IC50, mLTBP1 assay (CAGA12 luciferase) [2]: 0.271 nM; Kd [3]: 0.389 nM; koff [3]: 6e-05 s⁻¹; kon [3]: 154000 M⁻¹ s⁻¹; Kd [4]: 0.259 nM; koff [4]: 6e-05 s⁻¹; kon [4]: 232000 M⁻¹ s⁻¹; Kd [5]: 1.05 nM; Kd [6]: 0.359 nM
7 | SR-AB55-HuFab (Fab, V domains shown, Human Fab; also called SR-AB55 Fab) VH: QVQLVESGGGVVQPGRSLRLSCAASGFTFRSYVMHWVRQAPGKGLEWVAVISHEGSGKYYADSVKGRFTISRDNSKNTLYLQMNSLRAEDTAVYYCALPRIAARRGGFGSWGQGTLVTVSS VL: NFMLTQPHSVSESPGKTVTISCTRSSGNIDYNYVQWYQQRPGSSPTTVIYEDNVRPSGVPDRFSGSIDSSSNSASLTISGLKTEDEADYYCQSYDYDNQAVVFGGGTKLTVL | 0.131 | 0.000113 | 862000 | 
8 | SR-AB54-HuFab (Fab, V domains shown, Human Fab; also called SR-AB54 Fab) VH: QVQLVESGGGVVQPGRSLRLSCAASGFTFRSYVMHWVRQAPGKGLEWVAVISHEGSGKYYADSVKGRFTISRDNSKNTLYLQMNSLRAEDTAVYYCALPRIAARRGGFGSWGQGTLVTVSS VL: NFMLTQPHSVSESPGKTVTISCTRSSGNIDYNYVQWYQQRPGSSPTTVIYEDNVRPSGVPDRFSGSIDSSSNSASLTISGLKTEDEADYYCQSYDSDNQRVVFGGGTKLTVL | 0.0491 | 8.83e-05 | 1.8e+06 | 
9 | SR-AB57-HuFab (Fab, V domains shown, Human Fab; also called SR-AB57 Fab) VH: QVQLVESGGGVVQPGRSLRLSCAASGFTFRSYVMHWVRQAPGKGLEWVAVISHEGSGKYYADSVKGRFTISRDNSKNTLYLQMNSLRAEDTAVYYCALPRIAARRGGFGSWGQGTLVTVSS VL: NFMLTQPHSVSESPGKTVTISCTRSSGNIDYNYVQWYQQRPGSSPTTVIYEDNVRPSGVPDRFSGSIDSSSNSASLTISGLKTEDEADYYCQGYDWDTQGVVFGGGTKLTVL | 0.133 | 0.000181 | 1.35e+06 | 
10 | SR-AB56-HuFab (Fab, V domains shown, Human Fab; also called SR-Ab56 Fab) VH: QVQLVESGGGVVQPGRSLRLSCAASGFTFRSYVMHWVRQAPGKGLEWVAVISHEGSGKYYADSVKGRFTISRDNSKNTLYLQMNSLRAEDTAVYYCALPRIAARRGGFGSWGQGTLVTVSS VL: NFMLTQPHSVSESPGKTVTISCTRSSGNIDYNYVQWYQQRPGSSPTTVIYEDNVRPSGVPDRFSGSIDSSSNSASLTISGLKTEDEADYYCQSYDYDTQGVVFGGGTKLTVL | 0.0489 | 0.000126 | 2.58e+06 | 
11 | SR-AB58-HuFab (Fab, V domains shown, Human Fab; also called SR-AB58 Fab) VH: QVQLVESGGGVVQPGRSLRLSCAASGFTFRSYVMHWVRQAPGKGLEWVAVISHEGSGKYYADSVKGRFTISRDNSKNTLYLQMNSLRAEDTAVYYCALPRIAARRGGFGTWGQGTLVTVSS VL: NFMLTQPHSVSESPGKTVTISCTRSSGNIDYNYVQWYQQRPGSSPTTVIYEDNVRPSGVPDRFSGSIDSSSNSASLTISGLKTEDEADYYCQSYDSDNQRVVFGGGTKLTVL | 0.0521 | 0.000162 | 3.11e+06 | 
12 | SR-AB59-HuFab (Fab, V domains shown, Human Fab; also called SR-AB59 Fab) VH: QVQLVESGGGVVQPGRSLRLSCAASGFTFRSYVMHWVRQAPGKGLEWVAVISHEGSGKYYADSVKGRFTISRDNSKNTLYLQMNSLRAEDTAVYYCALPRIAARRGGFGTWGQGTLVTVSS VL: NFMLTQPHSVSESPGKTVTISCTRSSGNIDYNYVQWYQQRPGSSPTTVIYEDNVRPSGVPDRFSGSIDSSSNSASLTISGLKTEDEADYYCQSYDYDNQAVVFGGGTKLTVL | 0.0509 | 0.00013 | 2.55e+06 | 
13 | SR-AB52-HuFab (Fab, V domains shown, Human Fab; also called SR-AB52 Fab) VH: QVQLVESGGGVVQPGRSLRLSCAASGFTFRSYVMHWVRQAPGKGLEWVAVISHEGSGKYYADSVKGRFTISRDNSKNTLYLQMNSLRAEDTAVYYCARPRIAARRGGFGTWGQGTLVTVSS VL: NFMLTQPHSVSESPGKTVTISCTRSSGNIDYNYVQWYQQRPGSSPTTVIYEDNVRPSGVPDRFSGSIDSSSNSASLTISGLKTEDEADYYCQSYDYDTQGVVFGGGTKLTVL | 0.0396 | 9.91e-05 | 2.5e+06 | 
14 | SR-AB60-HuFab (Fab, V domains shown, Human Fab; also called SR-AB60 Fab) VH: QVQLVESGGGVVQPGRSLRLSCAASGFTFRSYVMHWVRQAPGKGLEWVAVISHEGSGKYYADSVKGRFTISRDNSKNTLYLQMNSLRAEDTAVYYCALPRIAARRGGFGTWGQGTLVTVSS VL: NFMLTQPHSVSESPGKTVTISCTRSSGNIDYNYVQWYQQRPGSSPTTVIYEDNVRPSGVPDRFSGSIDSSSNSASLTISGLKTEDEADYYCQSYDYDTQGVVFGGGTKLTVL | 0.051 | 0.00012 | 2.35e+06 | 
15 | SR-AB51-HuFab (Fab, V domains shown, Human Fab; also called SR-AB51 Fab) VH: QVQLVESGGGVVQPGRSLRLSCAASGFTFRSYVMHWVRQAPGKGLEWVAVISHEGSGKYYADSVKGRFTISRDNSKNTLYLQMNSLRAEDTAVYYCARPRIAARRGGFGTWGQGTLVTVSS VL: NFMLTQPHSVSESPGKTVTISCTRSSGNIDYNYVQWYQQRPGSSPTTVIYEDNVRPSGVPDRFSGSIDSSSNSASLTISGLKTEDEADYYCQSYDYDNQAVVFGGGTKLTVL | 0.0589 | 0.00015 | 2.55e+06 | 
